# Measured values reported in article PMC5127646 (2016).
# B1: SmN peptide, residues 219-229 (GMRPPPPGIRG) [human] / RBM5 OCRE domain (residues 451-511), wild type [human] (parent complex)
# chain 1: GMRPPPPGIRG
# chain 2: GAMGTKYAVPDTSTYQYDESSGYYYDPTTGLYYDPNSQYYYNSLTQQYLYWDGEKETYVPAAES
# Variants of: B1
# Assay: NMR titration (chemical shift perturbation score); 1:10 ratio of OCRE:peptide; read off a plot
row,Variant,ratio to parent
1,chain 1 GMAPPPPGIRG [chain 1 R3A],~0.51
2,chain 1 GMRPPPPGIEG [chain 1 R10E],~0.54
3,"chain 1 GMAPPPPGIAG [chain 1 R3A, chain 1 R10A]",~0.24
4,"chain 1 GMEPPPPGIEG [chain 1 R3E, chain 1 R10E]",~0.05

# Second part, the variant after the results:
row,ratio to parent,Variant
1,~0.27,"chain 1 GMRAPAPGIRG [chain 1 P4A, chain 1 P6A]"
2,~0.19,chain 1 GMEPPPPGIRG [chain 1 R3E]
3,~0.67,chain 1 GMRPPPPGIAG [chain 1 R10A]
